From article PMC4221134 (Advances in biological regulation, 2013) come the findings set out here.

This data set concerns the molecule itself. Kind of data set: native MS.

B1: S-RASSF5 SARAH (domain or fragment)
chain: GEVEWDAFSIPELQNFLTILEKEEQDKIQQVQKKYDKFRQKLEEALRESQGKPG
In the case of B1, the binding result is given as “binds”.

B2: MST1 SARAHmyc (domain or fragment)
chain: DYEFLKSWTVEDLQKRLLALDPMMEQEIEEIRQKYQSKRQPILDAIEAKKRRQQNF
On to B2, for which the binding result is on record as “binds”.
